From article doi:10.1101/2022.09.16.508217 (bioRxiv, 2022) come the findings set out here.

In test [1] the target is chicken N-terminally His-tagged PCNA (recombinant) (chicken, UniProt Q9DEA3 1-262). As to the kind of experiment: pull-down.
In test [2] the target is T1, yeast PCNA, N-terminally His-tagged Pol30 (S. cerevisiae, UniProt P15873 1-258).
T1 sequence: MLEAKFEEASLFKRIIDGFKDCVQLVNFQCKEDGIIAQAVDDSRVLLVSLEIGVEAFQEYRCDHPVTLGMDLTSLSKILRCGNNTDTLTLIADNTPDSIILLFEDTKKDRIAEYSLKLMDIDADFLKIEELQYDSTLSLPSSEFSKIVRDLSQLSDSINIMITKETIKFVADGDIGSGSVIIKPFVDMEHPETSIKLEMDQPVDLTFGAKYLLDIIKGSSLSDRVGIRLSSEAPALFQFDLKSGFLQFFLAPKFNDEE
Kind of test: pull-down.

Chain of chicken N-terminally His-tagged PCNA (recombinant) (Q9DEA3 whole entry): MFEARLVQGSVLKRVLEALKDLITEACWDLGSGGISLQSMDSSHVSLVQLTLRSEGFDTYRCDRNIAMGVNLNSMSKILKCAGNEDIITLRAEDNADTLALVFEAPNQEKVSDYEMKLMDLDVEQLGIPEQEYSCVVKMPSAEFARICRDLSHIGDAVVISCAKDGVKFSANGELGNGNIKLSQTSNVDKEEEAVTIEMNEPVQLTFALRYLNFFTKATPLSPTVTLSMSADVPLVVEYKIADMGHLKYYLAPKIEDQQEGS

B1: GST-NIPBL WT (C-terminus of chicken NIPBL, aa 2582-2783, fused to GST) (domain or fragment)
chain: ANSKITEEVKRSIVKQYLDFKLLMEHLDPDEEEEDGEVSASTNARNKAITSLLGGGSPKNNAAETEDDESDGEDRGGGTSGSLRRSKRNSDSTELASQMNESVDVMDVIAICCPKYKDRPQIARVVQKTSNGFSVQWMAGSYSGSWTEAKRRDGRKLVPWVDTIKESDIIYKKIALTSANKLTNKVVQTLRSLYAAKDGTSS
Regarding B1, in test [1], the binding result is reported as “binds”.

B2: GST-NIPBL pip1 (chicken NIPBL aa 2582-2783 with PIP1 mutated Q2597A,L2599A,F2601A, fused to GST) (domain or fragment)
chain: ANSKITEEVKRSIVKAYADAKLLMEHLDPDEEEEDGEVSASTNARNKAITSLLGGGSPKNNAAETEDDESDGEDRGGGTSGSLRRSKRNSDSTELASQMNESVDVMDVIAICCPKYKDRPQIARVVQKTSNGFSVQWMAGSYSGSWTEAKRRDGRKLVPWVDTIKESDIIYKKIALTSANKLTNKVVQTLRSLYAAKDGTSS
As to B2, the binding result in test [1] is “binds”.
As for TNKVVQTLRSLYAAKDGTSS [GST-NIPBL-PIP2 (chicken NIPBL aa 2764-2783 fused to GST)], the binding result in test [1] was “binds”.
The same measure, in the same setting: the value for TNKVVATARSLAAAKDGTSS [GST-NIPBL-pip2 (chicken NIPBL aa 2764-2783 with Q2769A,L2771A,Y2775A, fused to GST)] was “binds”.
YSSNGKLLTYFRKHVKDT (domain or fragment) [GSTscc2PIP (GST fused with the last 18 amino acids of yeast Scc2, aa 1476-1493, wild-type PIP)]: the binding result in test [2] is recorded as “binds”.
